One data set deals with T1, YFP-WUS-HD (Arabidopsis thaliana, UniProt Q9SB92 34-103).
T1 sequence: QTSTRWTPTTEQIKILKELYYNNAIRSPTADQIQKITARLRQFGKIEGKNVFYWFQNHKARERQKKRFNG
Put plainly: MST; MST: 20 mM Tris-HCl pH 8.0, 75 mM NaCl, 10 mM MgCl2, 0.05% Tween-20, 20 C, 50 nM YFP-WUS; ITC: same without Tween, 20 C; EMSA: 10 mM Tris-HCl pH 8.0, 75 mM NaCl, 50 ug/ml poly(dI-dC), 1 mM EDTA, 1 mM DTT, 5% glycerol. To be noted: protein: recombinant; tags: N-terminal His6-YFP, C-terminal StrepII; blunt.

In a further data set the target is T2, YFP-WUS-HD S36R (Arabidopsis thaliana, UniProt Q9SB92 34-103, S36R).
T2 sequence: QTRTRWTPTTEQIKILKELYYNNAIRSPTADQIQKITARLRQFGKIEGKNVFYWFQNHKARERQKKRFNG
The description is as above. To be noted: protein: recombinant; tags: N-terminal His6-YFP, C-terminal StrepII; blunt.

In another data set the target is T3, YFP-WUS-HD R94K (Arabidopsis thaliana, UniProt Q9SB92 34-103, R94K).
T3 sequence: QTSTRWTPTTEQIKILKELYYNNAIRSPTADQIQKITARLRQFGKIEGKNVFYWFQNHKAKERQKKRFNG
The data set is described as above. To be noted: protein: recombinant; tags: N-terminal His6-YFP, C-terminal StrepII; blunt.

A further data set addresses T4, YFP-WUS-HD T35R (Arabidopsis thaliana, UniProt Q9SB92 34-103, T35R).
T4 sequence: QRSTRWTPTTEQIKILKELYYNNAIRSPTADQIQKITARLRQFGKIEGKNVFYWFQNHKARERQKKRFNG
The description is as above. To be noted: protein: recombinant; tags: N-terminal His6-YFP, C-terminal StrepII; blunt.

Data set [1] concerns the target T5, WUS-HD (Arabidopsis thaliana, UniProt Q9SB92 34-103).
T5 sequence: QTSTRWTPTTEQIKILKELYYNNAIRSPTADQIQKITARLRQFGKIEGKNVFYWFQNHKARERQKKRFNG
Put plainly: EMSA; MST: 20 mM Tris-HCl pH 8.0, 75 mM NaCl, 10 mM MgCl2, 0.05% Tween-20, 20 C, 50 nM YFP-WUS; ITC: same without Tween, 20 C; EMSA: 10 mM Tris-HCl pH 8.0, 75 mM NaCl, 50 ug/ml poly(dI-dC), 1 mM EDTA, 1 mM DTT, 5% glycerol. Particulars: protein: recombinant; tags: none after TEV cleavage (from His6-MBP); label: Cy5; blunt.

Data set [2] addresses T5, WUS-HD. Put plainly: ITC; first binding event (Kd,1), sequential model, 2:1; MST: 20 mM Tris-HCl pH 8.0, 75 mM NaCl, 10 mM MgCl2, 0.05% Tween-20, 20 C, 50 nM YFP-WUS; ITC: same without Tween, 20 C; EMSA: 10 mM Tris-HCl pH 8.0, 75 mM NaCl, 50 ug/ml poly(dI-dC), 1 mM EDTA, 1 mM DTT, 5% glycerol. Particulars: protein: recombinant; tags: none after TEV cleavage (from His6-MBP); blunt. (In general: Isothermal titration calorimetry measures the heat released or taken up as one component is titrated into another.)

The next data set deals with T6, YFP-WUS-HD F85A (Arabidopsis thaliana, UniProt Q9SB92 34-103, F85A).
T6 sequence: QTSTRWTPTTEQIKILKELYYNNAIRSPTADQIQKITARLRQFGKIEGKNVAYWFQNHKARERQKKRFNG
Kind of data set: MST; MST: 20 mM Tris-HCl pH 8.0, 75 mM NaCl, 10 mM MgCl2, 0.05% Tween-20, 20 C, 50 nM YFP-WUS; ITC: same without Tween, 20 C; EMSA: 10 mM Tris-HCl pH 8.0, 75 mM NaCl, 50 ug/ml poly(dI-dC), 1 mM EDTA, 1 mM DTT, 5% glycerol. To be noted: protein: recombinant; tags: N-terminal His6-YFP, C-terminal StrepII; blunt.

In the next data set the target is T7, YFP-WUS-HD I66A (Arabidopsis thaliana, UniProt Q9SB92 34-103, I66A).
T7 sequence: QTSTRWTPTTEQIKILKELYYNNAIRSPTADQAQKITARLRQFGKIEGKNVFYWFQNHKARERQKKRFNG
The description is as above. Particulars: protein: recombinant; tags: N-terminal His6-YFP, C-terminal StrepII; blunt.

Another data set has as its target T8, YFP-WUS-HD F101A (Arabidopsis thaliana, UniProt Q9SB92 34-103, F101A).
T8 sequence: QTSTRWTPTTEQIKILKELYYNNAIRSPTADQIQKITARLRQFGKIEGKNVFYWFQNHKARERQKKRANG
Described as above. To be noted: protein: recombinant; tags: N-terminal His6-YFP, C-terminal StrepII; blunt.

For data set [3], the target named is T5, WUS-HD. Kind of data set: EMSA; shift slightly modified; MST: 20 mM Tris-HCl pH 8.0, 75 mM NaCl, 10 mM MgCl2, 0.05% Tween-20, 20 C, 50 nM YFP-WUS; ITC: same without Tween, 20 C; EMSA: 10 mM Tris-HCl pH 8.0, 75 mM NaCl, 50 ug/ml poly(dI-dC), 1 mM EDTA, 1 mM DTT, 5% glycerol. Particulars: protein: recombinant; tags: none after TEV cleavage (from His6-MBP); label: Cy5; blunt.

For data set [4], the target named is T5, WUS-HD. Put plainly: crystal structure; 2.8 A; two or three HD per DNA; MST: 20 mM Tris-HCl pH 8.0, 75 mM NaCl, 10 mM MgCl2, 0.05% Tween-20, 20 C, 50 nM YFP-WUS; ITC: same without Tween, 20 C; EMSA: 10 mM Tris-HCl pH 8.0, 75 mM NaCl, 50 ug/ml poly(dI-dC), 1 mM EDTA, 1 mM DTT, 5% glycerol. To be noted: protein: recombinant; tags: none after TEV cleavage (from His6-MBP); blunt. (A gel shift assay detects complexes by their altered migration in electrophoresis.)

The next data set has as its target T9, MBP-WUS-FL (Arabidopsis thaliana, UniProt Q9SB92 1-292).
T9 sequence: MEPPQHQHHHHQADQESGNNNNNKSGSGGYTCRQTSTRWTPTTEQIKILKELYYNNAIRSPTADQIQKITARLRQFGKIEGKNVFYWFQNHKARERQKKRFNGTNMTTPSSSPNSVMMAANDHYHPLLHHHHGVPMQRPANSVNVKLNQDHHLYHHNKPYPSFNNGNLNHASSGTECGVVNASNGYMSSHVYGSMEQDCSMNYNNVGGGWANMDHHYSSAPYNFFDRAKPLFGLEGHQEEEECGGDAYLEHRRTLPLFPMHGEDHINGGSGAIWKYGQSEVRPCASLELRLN
Put plainly: EMSA; MST: 20 mM Tris-HCl pH 8.0, 75 mM NaCl, 10 mM MgCl2, 0.05% Tween-20, 20 C, 50 nM YFP-WUS; ITC: same without Tween, 20 C; EMSA: 10 mM Tris-HCl pH 8.0, 75 mM NaCl, 50 ug/ml poly(dI-dC), 1 mM EDTA, 1 mM DTT, 5% glycerol. Particulars: protein: recombinant; tags: N-terminal His6-MBP; chain copies: 2; label: Cy5; blunt.

B1: TGAA 16-bp (dsDNA)
DNA 1: AGTGTATGAATGAACG
DNA 2: CGTTCATTCATACACT
The Kd is the concentration at which binding is half-saturated. B1: the Kd with YFP-WUS-HD is 270 ± 30 nM; with YFP-WUS-HD S36R, 320 ± 30 nM; in the data set with YFP-WUS-HD R94K, 11000 ± 1620 nM; with YFP-WUS-HD T35R, 540 ± 70 nM.

B2: f_TAAT T12C (dsDNA)
DNA 1: GTGTTAATGGGCTGTG
DNA 2: CACAGCCCATTAACAC
For the molecule B2, the binding result in the data set with WUS-HD [1] is listed as “binds”.

B3: f_TAAT wt 16-bp (dsDNA)
DNA 1: GTGTTAATGGGTTGTG
DNA 2: CACAACCCATTAACAC
Take B3: the binding result in the data set with WUS-HD [1] is listed as “binds”.

B4: TGAA Tail-to-Tail (dsDNA)
DNA 1: CGCCTGAATTCACGCC
DNA 2: GGCGTGAATTCAGGCG
Regarding B4, the Kd with YFP-WUS-HD is 1900 ± 200 nM.

B5: 2xTGAA (dsDNA)
DNA 1: CGCCTGAATGAACGCC
DNA 2: GGCGTTCATTCAGGCG
With B5, the Kd with WUS-HD [2] came out at 1240 ± 140 nM; with YFP-WUS-HD F85A, 6810 ± 870 nM; with YFP-WUS-HD it was 300 ± 40 nM; with YFP-WUS-HD I66A, 8200 ± 840 nM; with YFP-WUS-HD F101A, 800 ± 120 nM.

B6: f_TAAT T12C,T15C (dsDNA)
DNA 1: GTGTTAATGGGCTGCG
DNA 2: CGCAGCCCATTAACAC
As to B6, the binding result with WUS-HD [3] is given as “binds”.

B7: 3xTGAC (dsDNA)
DNA 1: CGTGACTGACTGACCC
DNA 2: GGGTCAGTCAGTCACG
As to B7, the Kd in the data set with YFP-WUS-HD was 390 ± 50 nM.

B8: G-Box 16-bp (dsDNA)
DNA 1: GTCGTCACGTGATGGG
DNA 2: CCCATCACGTGACGAC
On to B8, for which the Kd in the data set with YFP-WUS-HD is 3780 ± 420 nM.

B9: 3xTGAG (dsDNA)
DNA 1: CGTGAGTGAGTGAGCC
DNA 2: GGCTCACTCACTCACG
For B9, in the data set with YFP-WUS-HD, the Kd was determined as 1420 ± 170 nM.

B10: 3xTGAT (dsDNA)
DNA 1: CGTGATTGATTGATCC
DNA 2: GGATCAATCAATCACG
As for B10, the Kd with YFP-WUS-HD amounted to 120 ± 10 nM.

B11: 2xTGAA 4xSpacing (dsDNA)
DNA 1: CGTGAAGCGCTGAACC
DNA 2: GGTTCAGCGCTTCACG
As to B11, the Kd in the data set with YFP-WUS-HD was 3580 ± 440 nM.

B12: TGAA Head-to-Head (dsDNA)
DNA 1: CGCCTTCATGAACGCC
DNA 2: GGCGTTCATGAAGGCG
For B12, in the data set with YFP-WUS-HD, the Kd was 3170 ± 350 nM.

B13: TAAT 16-bp (dsDNA)
DNA 1: GTGTTAATGGGTTGTG
DNA 2: CACAACCCATTAACAC
As to B13, the binding result with WUS-HD [4] is “binds”. Moreover, the figures for the Kd in the data set with YFP-WUS-HD S36R, in the data set with YFP-WUS-HD R94K and with YFP-WUS-HD T35R were 1670 ± 170 nM, 4590 ± 580 nM and 1670 ± 200 nM, respectively.

B14: 2xTGAA 1xSpacing (dsDNA)
DNA 1: CGCTGAACTGAACGCC
DNA 2: GGCGTTCAGTTCAGCG
As to B14, in the data set with YFP-WUS-HD, the Kd is 2210 ± 250 nM.

B15: 3xTGAA 1xSpacing (dsDNA)
DNA 1: CTGAACTGAACTGAAC
DNA 2: GTTCAGTTCAGTTCAG
Turning to B15, in the data set with YFP-WUS-HD, the Kd came out at 840 ± 120 nM.

B16: 3xTGAA (dsDNA)
DNA 1: CGTGAATGAATGAACC
DNA 2: GGTTCATTCATTCACG
In the case of B16, the Kd with YFP-WUS-HD came out at 60 ± 10 nM.

B17: f_G-Box (dsDNA)
DNA 1: CATCGTCGTCACGTGATGGG
DNA 2: CCCATCACGTGACGACGATG
Turning to B17, the dissociation constant Kd with MBP-WUS-FL worked out at 1680 ± 300 nM.

B18: 1xTGAA (dsDNA)
DNA 1: CGCCGGTGAAGCCGCC
DNA 2: GGCGGCTTCACCGGCG
For B18, in the data set with YFP-WUS-HD, the Kd is 10500 ± 2300 nM.

Source of the values: paper PMC7203112, “Structural basis for the complex DNA binding behavior of the plant stem cell regulator WUSCHEL”.
